Reference: patent US20230331840A1 (published 2023)
Residue numbers refer to the chain shown, from its start.

B1: RFB-4 (antibody, V domains shown)
VH: EVQLVESGGGLVKPGGSLKLSCAASGFAFSIYDMSWVRQTPEKRLEWVAYISSGGGTTYYPDTVKGRFTISRDNAKNTLYLQMSSLKSEDTAMYYCARHSGYGSSYGVLFAYWGQGTLVTVSA
VL: DIQMTQTTSSLSASLGDRVTISCRASQDISNYLNWYQQKPDGTVKLLIYYTSILHSGVPSRFSGSGSGTDYSLTISNLEQEDFATYFCQQGNTLPWTFGGGTKLEIK
B2: CD22 antibody FC2-203 (antibody, V domains shown)
VH: QVQLQQPGAELVRPGASVKLSCKASGYTFSSYWINWVKQRPGQGLEWIGNIYPSDSYTNYNQKFKDKATLTVDKSSSTAYMQLSSPTSEDSAVYYCTREGHYYGSFGAMDYWGQGTSVTVSS
VL: DVQITQSPSYLAASPGETITINCRASKTISKYLAWYQEKPGKTNKLLIYSGSTLQSGIPSRFSGSGSGTDFTLTISSLEPEDFAMYYCQQHNEYPWTFGGGTKLEIKR
B3: CD22 antibody FC2-153 (antibody, V domains shown)
VH: QVQLQQSGAELMKPGASVKISCKATGYTFSSYWIEWVKQRPGHGLEWIGEILPGSGSTNYNEKFKGKATFTADTSSNTAYMQLSSLTSEDSAVYYCARWGQLGLFYAMDYWGQGTSVTVSS
VL: DIQMTQSPASLSASVGETVTITCRASENIYSYLAWYQQKQGKSPQLLVYNAKTLAEGVPSRFSGSGSGTQFSLKINSLQPEDFGSYYCQHHYGSPLTFGAGTKLELKR
B4: CD22 antibody FC2-070 (antibody, V domains shown)
VH: QVQLQQPGAELVKPGTSVKLSCKASGYNFTSYWINWVKLRPGQGLEWIGDIYPGSGNTNYNEKFKSKATLTVDTSSTTAYMQLSSLASEDSALYYCARRGYLDYWGQGTTLTVSS
VL: B3 VL with E27G, Y30H, S31N, E56D, F71Y, K74T, H91F, Y92W, G93S, S94T
B5: CD22 antibody FC2-117 (antibody, V domains shown)
VH: DVQLQESGPGLVKPSQSLSLTCSVTGYSITSGYYWNWIRQFPGNKLEWMGYISYDGSNNYNPSLKNRISITRDTSKNQFFLKLNSVTTEDTATYYCTKGGYGYYFDYWGQGTTLTVSS
VL: DIQMTQSPASLSASVGETVTITCRASGNIHNYLAWYQQKQGKSPQLLVYNAKTLADGVPSRFSGSGSGTQYSLKINSLQPEDFGSYYCQHFWSTPPTFGGGTKLEIKR
B6: CD22 antibody FC2-201 (antibody, V domains shown)
VH: KVQLQQSGAGLVKPGASVKLSCKASGYTFTDSILHWLMQRSGQGLEWIGWFYPGSGSIKYNEKFKDKATLTADKSSSTVYMELSRLTSEDSAFYFCARHEDGYDGFAYWGQGTLVTVSA
VL: ENVLTQSPAIMSASLGEKVTMSCRASSSVNYIFWYQQKSDASPKLWIYYTSNLAPGVPARFSGSGSGNSYSLTISSMEGEDAATYYCQQFTSSPFTFGSGTKLEIKR

Target: K562-CD22 (UniProt P20273 20-847)
Assay: FACS binding

| EC50 | Binder |
| --- | --- |
| 632 pM | B1 |

Target: T1, Human CD22 extracellular segment conjugated His label (human, UniProt P20273 20-687)
Assay: ELISA

| EC50 | Binder |
| --- | --- |
| 457 pM | B2 |
| 145 pM | B3 |
| 154 pM | B4 |
| 629 pM | B5 |
| 96 pM | B6 |

Target: T1, Human CD22 extracellular segment …
Assay: BLI (Fortebio)

| Kd | Binder |
| --- | --- |
| 7080 pM | B2 |
| 920 pM | B3 |
| 569 pM | B4 |
| 2730 pM | B5 |
| 72.2 pM | B6 |
